Assay results: patent publication US20250145716A1 (RAKUTEN MEDICAL, published 2025)

What was measured:
[1] = target: T1, human B7-1/CD80 (RD Systems 9050-B1) (human, UniProt P33681 35-242); assay: ELISA, plate-coated human B7-1/CD80 (1 µg/mL), OD 450 nm, B7 ligand specificity panel
T1 sequence (looked up): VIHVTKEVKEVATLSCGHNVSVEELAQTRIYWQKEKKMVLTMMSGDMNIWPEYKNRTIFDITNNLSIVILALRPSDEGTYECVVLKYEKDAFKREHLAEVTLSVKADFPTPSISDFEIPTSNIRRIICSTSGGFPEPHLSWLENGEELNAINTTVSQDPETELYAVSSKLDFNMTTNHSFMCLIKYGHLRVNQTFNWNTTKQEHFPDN
Protocol: (§1) Hybridoma supernatants were tested for binding to huPD-L1, cyPD-L1, and muPD-L1 by ELISA. Briefly, 30 μL 6xHis-tagged huPD-L1, cyPD-L1, or muPD-L1 (1 μg/mL in PBS) were immobilized in wells of a 96-well assay plate overnight at 4° C. After washing and blocking steps, 30 μL of antibody supernatant were added to the plate and incubated at room temperature for 1 hr. Bound human antibody was detected using horseradish peroxidase (HRP)-conjugated goat anti-human Fc (Invitrogen Cat. No. 109-035-097; diluted 1:5000) or goat anti-mouse Fc HRP (Invitrogen Cat. No. 115-035-071) as a control. Bound antibody was detected with 1-Step Ultra™ TMB-ELISA Substrate (ThermoFisher Scientific Cat. No. 34029). When the reaction was complete the reaction was stopped, and the plate was read at 450 nm.
(§2) Briefly, wells of a 96-well plate (Corning 3690) were incubated with 30 μL human PD-L1 (RD Systems 9049-B7), human PD-L2 (RD Systems 9075-PL), human B7-1/CD80 (RD Systems 9050-B1), human B7-2/CD86 (RD Systems 9090-B2), human B7-H2 (RD Systems 8206-B7), or human B7-H3 (RD Systems 1949-B3), at a concentration of 1 μg/mL in PBS, overnight at 4C, to coat the wells with ligand. After washing and blocking steps, 30 μL of antibody at 8 concentrations ranging from 1 ng/mL to 3 mg/mL were added to the plate and incubated at room temperature for 1 hr. Bound human antibody was detected as described above.

[2] = target: T2, PD-L1-His (Acro Cat PDL-H5229) (human, UniProt Q9NZQ7 19-238); assay: SPR (Biacore 4000), antibody captured on anti-human CM4 chip, PD-L1-His analyte, 37° C.
T2 construct: also called human PD-L1 (SPR analyte); not shown: His tag
T2 sequence (Q9NZQ7 19-238 limits assumed): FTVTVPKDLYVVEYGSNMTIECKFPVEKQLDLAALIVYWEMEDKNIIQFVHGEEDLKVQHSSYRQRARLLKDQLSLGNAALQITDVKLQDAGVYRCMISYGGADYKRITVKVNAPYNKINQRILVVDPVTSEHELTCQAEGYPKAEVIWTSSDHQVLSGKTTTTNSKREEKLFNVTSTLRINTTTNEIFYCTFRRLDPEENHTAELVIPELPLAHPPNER
Protocol: The binding affinities of the generated antibodies to human PD-L1 were determined by surface plasmon resonance. […] PD-L1-His (Acro Cat PDL-H5229) was tested for binding in a 3-fold titration series up to 100 nM. Data were collected in HBS-P (pH 7.4) at 37° C. and 25° C.

[3] = target: T3, human PD-L1 expressed on cells (human, UniProt Q9NZQ7 19-290); assay: cell-based or functional assay
T3 sequence (Q9NZQ7 19-290): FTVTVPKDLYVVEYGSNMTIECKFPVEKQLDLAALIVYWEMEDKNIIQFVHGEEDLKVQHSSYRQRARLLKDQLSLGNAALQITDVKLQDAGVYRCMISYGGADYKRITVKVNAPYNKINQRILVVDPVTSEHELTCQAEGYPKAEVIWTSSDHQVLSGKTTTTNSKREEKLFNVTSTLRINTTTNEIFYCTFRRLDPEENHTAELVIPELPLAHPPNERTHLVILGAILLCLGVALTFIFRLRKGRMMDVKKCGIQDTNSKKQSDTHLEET

[4] = target: T3, human PD-L1 expressed on cells; assay: flow cytometry on unstimulated A431 cells, ratio of EC50 values
Protocol: Approximately 2.5×10⁵ A431 squamous cell carcinoma cells were plated in a final volume of 50 μL FACS buffer (phosphate buffered saline, 1% fetal bovine serum, 5 mM EDTA) in 96-well plates. 50 μL 2× Zombie Violet (BioLegend) were added to each well, and the plates were incubated 20-30 minutes at room temperature, protected from light. After incubation, 150 μL FACS buffer were added to each well. The plates were centrifuged at 500×g for 5 minutes. The supernatant was removed, and the cell pellet were resuspended in 200 μL FACS buffer. The wash procedure was repeated for a total of 2-3 washes. […] After the cells were incubated with the primary anti-PD-L1 antibody 1 hour on ice, protected from light, 150 μL FACS buffer were added to each well. The plates were then centrifuged, the supernatant was removed, and the cells were resuspended in 250 μL FACS buffer three times. After the third wash, the cells were resuspended in 100 μL goat anti-human IgG-Alexa Fluor 488 secondary antibody, and incubated for 30 minutes on ice, protected from light. After 3 washes as previously described, the cells were resuspended in 200 μL FACS buffer. The cells were then analyzed using a CytoFLEX flow cytometer.

[5] = target: T4, 6xHis-tagged huPD-L1 (human, UniProt Q9NZQ7 19-238); assay: ELISA, plate-coated human PD-L1 (1 µg/mL), OD 450 nm, B7 ligand specificity panel
T4 construct: also called human PD-L1 (RD Systems 9049-B7); extracellular domain of human PD-L1 fused to a His tag; not shown: 6xHis tag
T4 sequence (Q9NZQ7 19-238): as the sequence (Q9NZQ7 19-238 limits assumed) above
Protocol: as §1, §2

- EC50 [1]: 5.31 µg/mL
- Kd [2]: 1.1 nM
- koff [2]: 0.00037 s⁻¹
- kon [2]: 330000 M⁻¹ s⁻¹
- EC50 of luminescence (RLU), PD-1:PD-L1 Blockade Bioassay (PD-L1 aAPC/CHO-K1 cells with PD-1 Effector Jurkat NFAT-luciferase cells) [3]: 67 ng/mL
- fold potency against avelumab [4]: 3.5 fold
- EC50 [5]: 0.0953 µg/mL
B1: 1P9 (antibody, V domains shown)
VH: EVQLVESGGGLVQPGGSLRLSCAASGFTFSTYWMSWVRQAPGKGLEWVANIKQDGGERYYVDSVKGRFTISRDNAKSSLYLQMNSLRAEDTALYYCARLRLYSDYEDYWGQGTLVTVSS
VL: DIQMTQSPSSVSASVGDRVTITCRASQGISSWLAWYQQKPGKAPKLLIYSVSSLQSGVPSRFSGSGSGTDFTLTISSLQPEDSATYYCQQANSLPPTFGGGTKVEIK
notes: Recombinant full-length human antibody expressed in CHO K1 GS KO cells, with wild-type human Fc; also called anti-PD-L1 antibody 1P9; Unconj; 1P9
